According to article PMC2580753:
Where two headings read alike, the source gives them in different places. Blank lines part the entries; values can stand above or below the substance they belong to.

How the values were obtained:
Experiment in all cases: SPR
[1] = target: Fcα (IgA1-Fc core fragment, CH2-CH3) (UniProt P01876); conditions: pH 7.4, 25 °C, 150 mM NaCl, TBS-P: 20 mM Tris
[2] = target: mIgA1κ (monomeric myeloma IgA1, kappa light chain) (UniProt P01876); conditions: pH 7.4, 25 °C, 150 mM NaCl, TBS-P: 20 mM Tris
[3] = target: mIgA1κ (monomeric myeloma IgA1, kappa light chain) (UniProt P01876); conditions: pH 7.4, 25 °C, 150 mM NaCl, TBS-P: 20 mM Tris; remark: listed apart in the source
[4] = target: Monomeric IgA1 (Mce), a naturally undergalactosylated myeloma IgA1 protein (human)
[5] = target: Monomeric myeloma patient-derived IgA1κ (mIgA1κ) (human)
[6] = target: Monomeric myeloma patient-derived IgA1λ (mIgA1λ) (human)
[7] = target: Deglycosylated mIgA1κ (N-glycans removed enzymatically) (human)
[8] = target: Monomeric myeloma patient-derived IgA1κ (mIgA1κ) (human); remark: listed apart in the source
[9] = target: Deglycosylated mIgA1κ (N-glycans removed enzymatically) (human); remark: listed apart in the source
[10] = target: Monomeric myeloma patient-derived IgA1κ (mIgA1κ) (human); remark: listed apart in the source

Chain of Fcα (IgA1-Fc core fragment, CH2-CH3) (P01876 whole entry, the tested form may be a part): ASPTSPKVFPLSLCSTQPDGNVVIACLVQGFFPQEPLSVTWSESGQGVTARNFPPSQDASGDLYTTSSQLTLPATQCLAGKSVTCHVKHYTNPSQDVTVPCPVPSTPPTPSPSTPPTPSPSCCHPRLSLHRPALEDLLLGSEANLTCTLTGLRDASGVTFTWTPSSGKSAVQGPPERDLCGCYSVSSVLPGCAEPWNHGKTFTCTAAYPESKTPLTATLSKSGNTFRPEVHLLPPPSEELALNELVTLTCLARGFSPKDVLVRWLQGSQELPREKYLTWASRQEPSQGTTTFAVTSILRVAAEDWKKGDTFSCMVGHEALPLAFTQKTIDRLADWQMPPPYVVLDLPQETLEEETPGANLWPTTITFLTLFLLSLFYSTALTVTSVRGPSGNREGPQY
Chain of mIgA1κ (monomeric myeloma IgA1, kappa light chain) (P01876 whole entry): as the sequence (P01876 whole entry, the tested form may be a part) above
Chain of Soluble recombinant FcαRI ectodomain (P24071 22-227): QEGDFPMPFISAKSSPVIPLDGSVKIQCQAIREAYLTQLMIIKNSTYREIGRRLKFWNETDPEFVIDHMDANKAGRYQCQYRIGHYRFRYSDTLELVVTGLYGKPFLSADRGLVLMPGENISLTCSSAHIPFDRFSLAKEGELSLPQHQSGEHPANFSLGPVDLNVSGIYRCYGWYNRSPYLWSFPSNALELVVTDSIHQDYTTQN

k1off [1]: 0.0278 s⁻¹ | k1on [1]: 461000 M/s | k2off [1]: 0.054 s⁻¹ | k2on [1]: 447000 M/s | k1off [2]: 0.0266 s⁻¹ | k1on [2]: 355000 M/s | k2off [2]: 0.074 s⁻¹ | k2on [2]: 304000 M/s | k1off [3]: 0.0267 s⁻¹ | k1on [3]: 317000 M/s | k2off [3]: 0.096 s⁻¹ | k2on [3]: 315000 M/s
Substance: FcαRI (CD89) soluble ectodomain

KD1 (first binding event) [4]: 72.3 nM | KD1 (two-site equilibrium model) [4]: 40.8 nM | KD2 (second binding event) [4]: 222 nM | KD2 (two-site equilibrium model) [4]: 403 nM | KD1 (first binding event) [5]: 74.9 nM | KD1 (two-site equilibrium model) [5]: 40.2 nM | KD1 at pH 5.5 (first binding event) [5]: 837 nM | KD2 (second binding event) [5]: 244 nM | KD2 (two-site equilibrium model) [5]: 452 nM | KD2 at pH 5.5 (second binding event) [5]: 2.53 μM | k1off (first binding event) [5]: 0.0266 s⁻¹ | k1on (first binding event) [5]: 355000 M/s | k2on (second binding event) [5]: 304000 M/s | KD1 (two-site equilibrium model) [6]: 47.6 nM | KD2 (second binding event) [6]: 195 nM | KD2 (two-site equilibrium model) [6]: 371 nM | k1off (first binding event) [6]: 0.0254 s⁻¹ | k1on (first binding event) [6]: 312000 M/s | k2off (second binding event) [6]: 0.102 s⁻¹ | k2on (second binding event) [6]: 525000 M/s | KD1 (two-site equilibrium model) [7]: 42.6 nM | KD2 (two-site equilibrium model) [7]: 582 nM | KD1 (two-site equilibrium model) [8]: 45 nM | KD2 (two-site equilibrium model) [8]: 571 nM | KD1 (first binding event) [9]: 78.4 nM | KD2 (second binding event) [9]: 320 nM | k1off (first binding event) [9]: 0.0258 s⁻¹ | k1on (first binding event) [9]: 329000 M/s | k2on (second binding event) [9]: 187000 M/s | k1off (first binding event) [10]: 0.0267 s⁻¹ | k1on (first binding event) [10]: 317000 M/s | k2on (second binding event) [10]: 315000 M/s
Substance: Soluble recombinant FcαRI ectodomain (from UniProt P24071 22-227) (receptor)
